What is called Ki is a measure of affinity in units of concentration, obtained from inhibition or displacement. A lower Ki goes with a stronger hold on the target.

In assay [1] the target is OR2, RASSL derived from the human kappa opioid receptor (human). Nature of the assay: binding to the receptor expressed in COS-7 and CHO-KI cells; Ki, method only 'as previously described'.
Assay [2] concerns the target OR1, RASSL derived from the human kappa opioid receptor (human). Described as above.
The target in assay [3] is OR2, RASSL derived from the human kappa opioid receptor (human). Nature of the assay: cell-based or functional assay.
The target in assay [4] is OR1, RASSL derived from the human kappa opioid receptor (human). Kind of assay: cell-based or functional assay.

Consider “Dynorphin A (from UniProt P01213 207-223) (peptide)”, for which the Ki in assay [1] came out at 125 nM; in assay [2], 14.6 nM. In addition, the values for the EC50, signaling (activation of G protein-mediated signal) in assay [3] and in assay [4] were 1080 nM and 61 nM, respectively.
